Reference: patent US20240269235A1 (Gilead, published 2024)
Where two headings read alike, the source gives them in different places.

Experiments:
[1] = molecular target: T1, trimeric murine IL-2 receptor (IL-2Rα, IL-2Rβ, and IL-2Rγ) on CTLL-2 cells (murine, UniProt P01590 22-268; P16297 27-539; P34902 23-369); assay: cell-based or functional assay
T1 sequence (looked up) 1: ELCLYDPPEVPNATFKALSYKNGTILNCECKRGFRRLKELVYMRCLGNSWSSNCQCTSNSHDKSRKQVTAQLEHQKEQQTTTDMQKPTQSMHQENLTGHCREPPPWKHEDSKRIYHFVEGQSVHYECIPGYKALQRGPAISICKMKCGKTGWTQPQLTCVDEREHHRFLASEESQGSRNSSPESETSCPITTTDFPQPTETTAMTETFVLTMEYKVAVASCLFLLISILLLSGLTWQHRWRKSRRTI
T1 sequence (looked up) 2: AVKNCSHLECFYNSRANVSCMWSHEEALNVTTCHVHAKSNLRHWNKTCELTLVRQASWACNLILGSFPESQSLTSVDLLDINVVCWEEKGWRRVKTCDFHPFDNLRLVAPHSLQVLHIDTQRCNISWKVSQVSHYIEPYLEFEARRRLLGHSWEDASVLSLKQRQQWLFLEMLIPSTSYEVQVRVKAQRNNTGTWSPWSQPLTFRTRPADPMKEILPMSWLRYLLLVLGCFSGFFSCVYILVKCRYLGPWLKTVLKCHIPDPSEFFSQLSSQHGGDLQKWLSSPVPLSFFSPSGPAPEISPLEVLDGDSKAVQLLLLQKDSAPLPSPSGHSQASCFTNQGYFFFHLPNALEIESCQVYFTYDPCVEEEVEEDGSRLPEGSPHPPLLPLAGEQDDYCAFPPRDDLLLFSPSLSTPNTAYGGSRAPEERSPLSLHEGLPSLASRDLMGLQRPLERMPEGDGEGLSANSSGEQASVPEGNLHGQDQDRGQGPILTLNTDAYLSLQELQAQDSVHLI
T1 sequence (looked up) 3: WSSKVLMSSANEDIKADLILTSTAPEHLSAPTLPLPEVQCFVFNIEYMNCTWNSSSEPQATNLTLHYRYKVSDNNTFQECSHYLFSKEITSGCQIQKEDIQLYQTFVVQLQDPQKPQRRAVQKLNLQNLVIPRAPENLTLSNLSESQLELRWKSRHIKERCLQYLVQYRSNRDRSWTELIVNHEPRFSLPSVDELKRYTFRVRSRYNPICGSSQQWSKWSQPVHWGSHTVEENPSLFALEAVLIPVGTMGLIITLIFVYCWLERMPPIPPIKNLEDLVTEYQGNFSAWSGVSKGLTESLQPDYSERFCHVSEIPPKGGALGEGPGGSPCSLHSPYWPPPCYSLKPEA

[2] = molecular target: T2, IL-2Rβγ heterodimer, custom biotinylated Fc fusion protein (human IL-2Rβ 27-240-Fc-FLAG / human IL-2Rγ … (human, site-specific biotinylation at the AviTag)); assay: SPR (Biacore), CM4 chip, biotinylated receptor on neutravidin
T2 construct: Extracellular regions fused to IgG1 knob-in-hole Fc subunits with tags; also called IL-2 receptor βγ heterodimer; Fc-IL-2Rβγ

[3] = molecular target: T3, IL-2Rα (recombinant IL-2 receptor α, R&D Systems Cat #: 223-2A/CF), biotinylated (human, UniProt P01589 22-213, limits assumed, biotinylated using sulfo-NHS-LC-LC-Biotin); assay: as above
T3 construct: Bought reagent; also used here as the IL-2Rα partner of the in-silico analysis of PDB 2B5I (another construct); also called IL-2RA; CD25
T3 sequence (looked up): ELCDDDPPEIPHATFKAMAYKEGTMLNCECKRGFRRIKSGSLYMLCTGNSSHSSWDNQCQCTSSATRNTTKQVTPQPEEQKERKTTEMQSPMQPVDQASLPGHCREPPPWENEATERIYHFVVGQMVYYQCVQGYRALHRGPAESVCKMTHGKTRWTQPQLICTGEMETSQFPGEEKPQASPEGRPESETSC

[4] = molecular target: T4, human IL-2Rα on Treg cells (CD3+, CD4+, CD25hi, FoxP3+) of human PBMC (human, UniProt P01589 22-272); assay: cell-based or functional assay
T4 sequence (looked up): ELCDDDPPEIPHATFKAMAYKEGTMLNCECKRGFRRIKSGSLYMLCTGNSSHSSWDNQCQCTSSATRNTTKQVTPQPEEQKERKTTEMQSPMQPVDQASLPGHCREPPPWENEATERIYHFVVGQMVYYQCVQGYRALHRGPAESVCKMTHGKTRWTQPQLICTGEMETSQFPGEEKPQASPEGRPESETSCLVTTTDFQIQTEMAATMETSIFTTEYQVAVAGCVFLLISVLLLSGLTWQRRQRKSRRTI

[5] = molecular target: T1, trimeric murine IL-2 receptor (IL-2Rα, …); assay: cell-based or functional assay; remark: listed apart in the source

B1: Fc-IL-2 heterodimer 117.46 (hIL-2v_Δ1-5_C125S), native IL-2Rα binding interface (Fc fusion)
chain 1: ESKYGPPCPPCPAPEAAGGPSVFLFPPKPKDTLMISRTPEVTCVVVDVSQEDPEVQFNWYVDGVEVHNAKTKPREEQFNSTYRVVSVLTVLHQDWLNGKEYKCKVSNKGLPSSIEKTISKAKGQPREPQVYTLPPSQEEMTKNQVSLWCLVKGFYPSDIAVEWESNGQPENNYKTTPPVLDSDGSFFLYSRLTVDKSRWQEGNVFSCSVMHEALHNHYTQKSLSLSLGGGGGSGGGGSGGGGSGGGGSSTKKTQLQLEHLLLDLQMILNGINNYKNPKLTRMLTFKFYMPKKATELKHLQCLEEELKPLEEVLNLAQSKNFHLRPRDLISNINVIVLELKGSETTFMCEYADETATIVEFLNRWITFSQSIISTLT
chain 2: ESKYGPPCPPCPAPEAAGGPSVFLFPPKPKDTLMISRTPEVTCVVVDVSQEDPEVQFNWYVDGVEVHNAKTKPREEQFNSTYRVVSVLTVLHQDWLNGKEYKCKVSNKGLPSSIEKTISKAKGQPREPQVYTLPPSQEEMTKNQVSLSCAVKGFYPSDIAVEWESNGQPENNYKTTPPVLDSDGSFFLVSRLTVDKSRWQEGNVFSCSVMHEALHNRFTQKSLSLSLGK
notes: hIgG4 knob-in-hole Fc heterodimer
STAT5 activation of CTLL-2 cells, EC50 [1]: 3 pM | Kd [2]: 56 pM | Kd [3]: 60000 pM | Treg EC50, STAT5 activation (PBMC STAT5 assay) [4]: < 1 pM | STAT5 activation of CTLL-2 cells, EC50 [5]: 2 pM
